Reference: patent US20220372138A1 (IOMX THERAPEUTICS, published 2022)
Positions count from the first letter of the chain named.

Columns and labels:
[1] = biological target: T1, extracellular domain (ECD) of human IGSF11 (VSIG3), recombinant (human, UniProt Q5DX21 23-241); experiment: BLI apparent affinity, IgG on AHC sensor, IGSF11 ECD 100 nM
T1 construct: biotinylated where captured on streptavidin; tags of the reagent not always stated; also called IGSF11 (ECD domain); ECD-IGSF11
T1 sequence: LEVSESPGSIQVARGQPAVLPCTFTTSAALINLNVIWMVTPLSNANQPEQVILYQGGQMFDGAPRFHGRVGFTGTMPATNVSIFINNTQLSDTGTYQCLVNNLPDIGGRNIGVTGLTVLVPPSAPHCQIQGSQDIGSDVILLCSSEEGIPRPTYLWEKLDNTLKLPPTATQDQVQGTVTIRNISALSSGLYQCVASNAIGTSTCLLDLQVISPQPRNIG
Source text: Briefly, various APBs were loaded on an optical biosensor via a commercially available Capture System (AHC sensors, ForteBio).

[2] = biological target: T2, human IGSF11 (VSIG3) expressed on cells (human, UniProt Q5DX21 23-431); experiment: IgG FACS MDA-MB-231-IGSF11
T2 sequence: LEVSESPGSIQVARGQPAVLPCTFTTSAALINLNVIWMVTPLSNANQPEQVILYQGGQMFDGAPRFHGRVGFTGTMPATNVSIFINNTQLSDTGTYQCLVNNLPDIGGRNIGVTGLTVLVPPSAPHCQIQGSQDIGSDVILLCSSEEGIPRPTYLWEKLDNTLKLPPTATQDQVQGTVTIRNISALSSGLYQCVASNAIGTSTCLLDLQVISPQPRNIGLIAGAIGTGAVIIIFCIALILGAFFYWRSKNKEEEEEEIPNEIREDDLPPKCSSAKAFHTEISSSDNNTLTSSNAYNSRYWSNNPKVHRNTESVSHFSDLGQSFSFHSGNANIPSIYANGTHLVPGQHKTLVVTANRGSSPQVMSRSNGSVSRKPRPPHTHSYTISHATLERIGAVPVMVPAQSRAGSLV
Source text: (§1) Unbound antibodies were removed by washing the cells three time with FACS buffer. Bound antibodies were detected with a mouse anti-human IgG antibody conjugated with AlexaFluor647.

[3] = biological target: T3, murine IGSF11 expressed on cells (mouse, UniProt P0C673 23-428); experiment: IgG FACS CT26-IGSF11
T3 construct: MC38-IGSF11, CT26-IGSF11, MC38-wt (naturally expresses murine IGSF11)
T3 sequence: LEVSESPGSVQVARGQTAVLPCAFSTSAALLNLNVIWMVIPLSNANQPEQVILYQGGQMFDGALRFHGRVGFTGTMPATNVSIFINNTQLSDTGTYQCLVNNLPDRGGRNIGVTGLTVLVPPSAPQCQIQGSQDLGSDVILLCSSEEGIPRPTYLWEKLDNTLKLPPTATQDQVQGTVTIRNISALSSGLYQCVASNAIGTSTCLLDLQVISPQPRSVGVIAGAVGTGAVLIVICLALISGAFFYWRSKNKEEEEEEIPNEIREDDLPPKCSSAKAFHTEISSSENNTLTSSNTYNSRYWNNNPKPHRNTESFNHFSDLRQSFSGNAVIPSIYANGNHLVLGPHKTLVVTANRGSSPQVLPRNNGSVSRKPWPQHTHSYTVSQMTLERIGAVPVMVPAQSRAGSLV
Source text: as §1

[4] = biological target: T2, human IGSF11 (VSIG3) expressed on cells; experiment: IgG FACS, human IGSF11 cell lines of Table 13.4; human IGSF11 cell lines (Colo741, MDA-MB-231-IGSF11)
[5] = biological target: T3, murine IGSF11 expressed on cells; experiment: IgG FACS, murine IGSF11 cell lines of Table 13.4; murine IGSF11 cell lines (MC38-IGSF11, MC38-wt)
[6] = biological target: T4, IgC2 domain of human IGSF11 fused to murine IgG2a Fc (human, UniProt Q5DX21 137-241); experiment: IgG ELISA;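 further: ELISA binding of IgG antibodies to plate-coated IGSF11 Fc-fusion proteins (full-length ECD, IgV or IgC2 domain), detected via HRP-labelled anti-human IgG with TMB development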
T4 construct: not shown: murine IgG2a Fc-region
T4 sequence: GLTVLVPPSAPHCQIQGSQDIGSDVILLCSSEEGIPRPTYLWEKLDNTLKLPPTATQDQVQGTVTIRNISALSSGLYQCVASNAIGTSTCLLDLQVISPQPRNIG

[7] = biological target: T5, full-length ECD of human IGSF11 fused to murine Fc (human, UniProt Q5DX21 23-241); experiment: IgG ELISA;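 further: ELISA binding of IgG antibodies to plate-coated IGSF11 Fc-fusion proteins (full-length ECD, IgV or IgC2 domain), detected via HRP-labelled anti-human IgG with TMB development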
T5 construct: also called Fc-fusion IGSF11 ECD; not shown: murine Fc
T5 sequence: T1 sequence

[8] = biological target: T3, murine IGSF11 expressed on cells; experiment: IgG FACS MC38-IGSF11
Source text: as §1

[9] = biological target: T2, human IGSF11 (VSIG3) expressed on cells; experiment: IgG FACS Colo741
Source text: as §1

[10] = biological target: T3, murine IGSF11 expressed on cells; experiment: IgG FACS MC38-IGSF11; remark: listed apart in the source
Source text: as §1

[11] = biological target: T2, human IGSF11 (VSIG3) expressed on cells; experiment: IgG FACS MDA-MB-231-IGSF11; remark: listed apart in the source
Source text: as §1

[12] = biological target: T1, extracellular domain (ECD) of human …; experiment: KinExA, Fab as CBP 80 and 800 pM, n-curve
Procedure: (§2) Solution-based binding affinities were determined using the Kinetic Exclusion Assay (KinExA) 4000 system as described below, where binding partners were combined and allowed to reach equilibrium prior to measurement.
(§3) Briefly, anti-IGSF11 ABPs of the invention as Fabs were used as Constant Binding Partner (CBP) and human recombinant IGSF11 ECD was used as Titrant. After reaching equilibrium, free CBP were detected using PMMA beads coated with IGSF11 ECD or IGSF11 IgC2-domain Fc-fusion protein and an anti-human F(ab′)2 antibody conjugated with AlexaFluor647. […] The CBP was incubated with different Titrant concentrations for 16 h (or 72-90 h) to reach equilibrium. The equilibrium binding curves of different CBP concentrations were measured in duplicates and drift correction was applied. The n-curve analysis tool within the KinExA Pro Software version 4.4.26 was applied to obtain one KD value per set of binding curves by finding the best fit of a 1:1 binding model to the data.

[13] = biological target: T3, murine IGSF11 expressed on cells; experiment: IgG FACS MC38-wt; MC38-wt cells (murine line, not transfected)
Source text: as §1

[14] = biological target: T1, extracellular domain (ECD) of human …; experiment: BLI: biotinylated IGSF11 on streptavidin sensor, ABP bound for 600 s, then VISTA.COMP; VISTA response normalised to that without antibody
Source text: Briefly, biotinylated IGSF11 was loaded on an optical biosensor via a streptavidin surface. The IGSF11-loaded biosensor was dipped into the samples with different concentrations of anti-IGSF11 ABP, and ABPs were bound for 600s.

[15] = biological target: T1, extracellular domain (ECD) of human …; experiment: KinExA, Fab as CBP 15 pM, single binding curve
Procedure: as §2, §3

B1: C-005 (IgG1 format) (antibody, V domains shown)
VH: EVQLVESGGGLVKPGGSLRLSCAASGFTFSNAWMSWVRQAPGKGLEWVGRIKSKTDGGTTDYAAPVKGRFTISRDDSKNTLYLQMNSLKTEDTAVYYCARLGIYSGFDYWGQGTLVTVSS
VL: SYELTQPPSVSVSPGQTASITCSGDKLGDKYASWYQQKPGQSPVLVIYQDSKRPSGIPERFSGSNSGNTATLTISGTQAEDEADYYCHSYTGKPSQVVFGGGTKLTVL
Kd [1]: < 15 nM
EC50 [2]: < 10 nM
EC50 [3]: < 20 nM
EC50 [4]: ~2 nM
EC50 [5]: ~2 nM
EC50 [6]: < 1 nM
EC50 [7]: < 1 nM
EC50 [8]: < 20 nM

B2: D-222 (IgG format) (antibody, V domains shown)
VH: EVQLVESGGGLVKPGGSLRLSCAASGFTFSHAWISWVRQAPGKGLEWVGQIKGGPGSGGTSYAEPVKGRFTISRDDSKNTLYLQMNSLKTEDTAVYYCARLGIYSGFDYWGQGTLVTVSS
VL: B1 VL with S89T, T91S, G92H, K93R, S95E, Q96I
EC50 [9]: < 0.5 nM
EC50 [10]: < 0.5 nM
EC50 [11]: < 0.5 nM

B3: D-222 (Fab, KinExA constant binding partner) (Fab, V domains shown)
VH: B2 VH
VL: B1 VL with S89T, T91S, G92H, K93R, S95E, Q96I
notes: Fab
Kd [12]: < 0.15 nM

B4: D-114 (IgG format) (antibody, V domains shown)
VH: EVQLLESGGGLVQPGGSLRLSCAASGFTFQFSALSWVRQAPGKGLEWVSAISYGGGSKYYADSVKGRFTISRDNSKNTLYLQMNSLRAEDTAVYYCARDSRDAYGVAFDLWGQGTMVTVSS
VL: ASVLTQPPSVSAAPGQKVTISCSGSSSNIGNNYVSWYQQLPGTAPKLLIYDNNKRPSGIPDRFSGSKSGTSATLGITGLQAEDEADYYCLSYKLSPGAYVFGGGTKLTVL
EC50 [13]: < 0.5 nM
IC50 (read off the curve) [14]: ~0.7 nM
EC50 [9]: < 0.5 nM

B5: D-114 (Fab, KinExA constant binding partner) (Fab, V domains shown)
VH: B4 VH
VL: B4 VL
notes: Fab
Kd [15]: < 0.01 nM
